Molecular target: FrpB F3-3 variant (Neisseria meningitidis)
Experiment: crystal structure; FrpB F3-3, space group P212121, three copies in the asymmetric unit about a non-crystallographic 3-fold axis, 2.40 Å; C8E5 detergent; crystals from the monomeric SEC peak

## FrpB F3-3 variant (natural protein)
  stoichiometry N: 3

From PMC3574120
